Test results as given in article PMC8882007, “Syndapin-2 mediated transcytosis of amyloid-β across the blood–brain barrier” (Brain Communications, 2022).

B1: apolipoprotein E (ligand, mouse (endogenous in bEnd3), UniProt P08226 19-311, looked up)
chain: EGEPEVTDQLEWQSNQPWEQALNRFWDYLRWVQTLSDQVQEELQSSQVTQELTALMEDTMTEVKAYKKELEEQLGPVAEETRARLGKEVQAAQARLGADMEDLRNRLGQYRNEVHTMLGQSTEEIRARLSTHLRKMRKRLMRDAEDLQKRLAVYKAGAREGAERGVSAIRERLGPLVEQGRQRTANLGAGAAQPLRDRAQAFGDRIRGRLEEVGNQARDRLEEVREHMEEVRSKMEEQTQQIRLQAEIFQARLKGWFEPIVEDMHRQWANLMEKIQASVATNPIITPVAQENQ
notes: apolipoprotein E (ApoE), detected in mouse brain endothelial cells (bEnd3); also called ApoE; source: endogenous, bEnd3 mouse brain endothelial cells (fixed, permeabilized)

Columns and labels:
Test in all cases: proximity ligation; Duolink PLA between two endogenous proteins in polarized bEnd3 monolayers, fixed in 4% PFA and permeabilized with 0.1% Triton X-100; two primary antibodies overnight at 4°C; PLA signal normalized by the number of nuclei; also in shRNA control (scramble) and syndapin-2 knockdown cells, and after FAM-Aβ (1–40) or Aβ monomers, oligomers or fibrils for 15 min
Conditions in all cases: partners not purified
[1] = biological target: T1, low-density lipoprotein receptor-related protein 1 (mouse (endogenous in bEnd3), UniProt Q91ZX7 20-4545)
T1 construct: low-density lipoprotein receptor-related protein 1 (LRP1), endogenous in mouse brain endothelial cells (bEnd3); also called LRP1; source: endogenous, bEnd3 mouse brain endothelial cells (fixed, permeabilized)
T1 sequence (Q91ZX7 20-4545): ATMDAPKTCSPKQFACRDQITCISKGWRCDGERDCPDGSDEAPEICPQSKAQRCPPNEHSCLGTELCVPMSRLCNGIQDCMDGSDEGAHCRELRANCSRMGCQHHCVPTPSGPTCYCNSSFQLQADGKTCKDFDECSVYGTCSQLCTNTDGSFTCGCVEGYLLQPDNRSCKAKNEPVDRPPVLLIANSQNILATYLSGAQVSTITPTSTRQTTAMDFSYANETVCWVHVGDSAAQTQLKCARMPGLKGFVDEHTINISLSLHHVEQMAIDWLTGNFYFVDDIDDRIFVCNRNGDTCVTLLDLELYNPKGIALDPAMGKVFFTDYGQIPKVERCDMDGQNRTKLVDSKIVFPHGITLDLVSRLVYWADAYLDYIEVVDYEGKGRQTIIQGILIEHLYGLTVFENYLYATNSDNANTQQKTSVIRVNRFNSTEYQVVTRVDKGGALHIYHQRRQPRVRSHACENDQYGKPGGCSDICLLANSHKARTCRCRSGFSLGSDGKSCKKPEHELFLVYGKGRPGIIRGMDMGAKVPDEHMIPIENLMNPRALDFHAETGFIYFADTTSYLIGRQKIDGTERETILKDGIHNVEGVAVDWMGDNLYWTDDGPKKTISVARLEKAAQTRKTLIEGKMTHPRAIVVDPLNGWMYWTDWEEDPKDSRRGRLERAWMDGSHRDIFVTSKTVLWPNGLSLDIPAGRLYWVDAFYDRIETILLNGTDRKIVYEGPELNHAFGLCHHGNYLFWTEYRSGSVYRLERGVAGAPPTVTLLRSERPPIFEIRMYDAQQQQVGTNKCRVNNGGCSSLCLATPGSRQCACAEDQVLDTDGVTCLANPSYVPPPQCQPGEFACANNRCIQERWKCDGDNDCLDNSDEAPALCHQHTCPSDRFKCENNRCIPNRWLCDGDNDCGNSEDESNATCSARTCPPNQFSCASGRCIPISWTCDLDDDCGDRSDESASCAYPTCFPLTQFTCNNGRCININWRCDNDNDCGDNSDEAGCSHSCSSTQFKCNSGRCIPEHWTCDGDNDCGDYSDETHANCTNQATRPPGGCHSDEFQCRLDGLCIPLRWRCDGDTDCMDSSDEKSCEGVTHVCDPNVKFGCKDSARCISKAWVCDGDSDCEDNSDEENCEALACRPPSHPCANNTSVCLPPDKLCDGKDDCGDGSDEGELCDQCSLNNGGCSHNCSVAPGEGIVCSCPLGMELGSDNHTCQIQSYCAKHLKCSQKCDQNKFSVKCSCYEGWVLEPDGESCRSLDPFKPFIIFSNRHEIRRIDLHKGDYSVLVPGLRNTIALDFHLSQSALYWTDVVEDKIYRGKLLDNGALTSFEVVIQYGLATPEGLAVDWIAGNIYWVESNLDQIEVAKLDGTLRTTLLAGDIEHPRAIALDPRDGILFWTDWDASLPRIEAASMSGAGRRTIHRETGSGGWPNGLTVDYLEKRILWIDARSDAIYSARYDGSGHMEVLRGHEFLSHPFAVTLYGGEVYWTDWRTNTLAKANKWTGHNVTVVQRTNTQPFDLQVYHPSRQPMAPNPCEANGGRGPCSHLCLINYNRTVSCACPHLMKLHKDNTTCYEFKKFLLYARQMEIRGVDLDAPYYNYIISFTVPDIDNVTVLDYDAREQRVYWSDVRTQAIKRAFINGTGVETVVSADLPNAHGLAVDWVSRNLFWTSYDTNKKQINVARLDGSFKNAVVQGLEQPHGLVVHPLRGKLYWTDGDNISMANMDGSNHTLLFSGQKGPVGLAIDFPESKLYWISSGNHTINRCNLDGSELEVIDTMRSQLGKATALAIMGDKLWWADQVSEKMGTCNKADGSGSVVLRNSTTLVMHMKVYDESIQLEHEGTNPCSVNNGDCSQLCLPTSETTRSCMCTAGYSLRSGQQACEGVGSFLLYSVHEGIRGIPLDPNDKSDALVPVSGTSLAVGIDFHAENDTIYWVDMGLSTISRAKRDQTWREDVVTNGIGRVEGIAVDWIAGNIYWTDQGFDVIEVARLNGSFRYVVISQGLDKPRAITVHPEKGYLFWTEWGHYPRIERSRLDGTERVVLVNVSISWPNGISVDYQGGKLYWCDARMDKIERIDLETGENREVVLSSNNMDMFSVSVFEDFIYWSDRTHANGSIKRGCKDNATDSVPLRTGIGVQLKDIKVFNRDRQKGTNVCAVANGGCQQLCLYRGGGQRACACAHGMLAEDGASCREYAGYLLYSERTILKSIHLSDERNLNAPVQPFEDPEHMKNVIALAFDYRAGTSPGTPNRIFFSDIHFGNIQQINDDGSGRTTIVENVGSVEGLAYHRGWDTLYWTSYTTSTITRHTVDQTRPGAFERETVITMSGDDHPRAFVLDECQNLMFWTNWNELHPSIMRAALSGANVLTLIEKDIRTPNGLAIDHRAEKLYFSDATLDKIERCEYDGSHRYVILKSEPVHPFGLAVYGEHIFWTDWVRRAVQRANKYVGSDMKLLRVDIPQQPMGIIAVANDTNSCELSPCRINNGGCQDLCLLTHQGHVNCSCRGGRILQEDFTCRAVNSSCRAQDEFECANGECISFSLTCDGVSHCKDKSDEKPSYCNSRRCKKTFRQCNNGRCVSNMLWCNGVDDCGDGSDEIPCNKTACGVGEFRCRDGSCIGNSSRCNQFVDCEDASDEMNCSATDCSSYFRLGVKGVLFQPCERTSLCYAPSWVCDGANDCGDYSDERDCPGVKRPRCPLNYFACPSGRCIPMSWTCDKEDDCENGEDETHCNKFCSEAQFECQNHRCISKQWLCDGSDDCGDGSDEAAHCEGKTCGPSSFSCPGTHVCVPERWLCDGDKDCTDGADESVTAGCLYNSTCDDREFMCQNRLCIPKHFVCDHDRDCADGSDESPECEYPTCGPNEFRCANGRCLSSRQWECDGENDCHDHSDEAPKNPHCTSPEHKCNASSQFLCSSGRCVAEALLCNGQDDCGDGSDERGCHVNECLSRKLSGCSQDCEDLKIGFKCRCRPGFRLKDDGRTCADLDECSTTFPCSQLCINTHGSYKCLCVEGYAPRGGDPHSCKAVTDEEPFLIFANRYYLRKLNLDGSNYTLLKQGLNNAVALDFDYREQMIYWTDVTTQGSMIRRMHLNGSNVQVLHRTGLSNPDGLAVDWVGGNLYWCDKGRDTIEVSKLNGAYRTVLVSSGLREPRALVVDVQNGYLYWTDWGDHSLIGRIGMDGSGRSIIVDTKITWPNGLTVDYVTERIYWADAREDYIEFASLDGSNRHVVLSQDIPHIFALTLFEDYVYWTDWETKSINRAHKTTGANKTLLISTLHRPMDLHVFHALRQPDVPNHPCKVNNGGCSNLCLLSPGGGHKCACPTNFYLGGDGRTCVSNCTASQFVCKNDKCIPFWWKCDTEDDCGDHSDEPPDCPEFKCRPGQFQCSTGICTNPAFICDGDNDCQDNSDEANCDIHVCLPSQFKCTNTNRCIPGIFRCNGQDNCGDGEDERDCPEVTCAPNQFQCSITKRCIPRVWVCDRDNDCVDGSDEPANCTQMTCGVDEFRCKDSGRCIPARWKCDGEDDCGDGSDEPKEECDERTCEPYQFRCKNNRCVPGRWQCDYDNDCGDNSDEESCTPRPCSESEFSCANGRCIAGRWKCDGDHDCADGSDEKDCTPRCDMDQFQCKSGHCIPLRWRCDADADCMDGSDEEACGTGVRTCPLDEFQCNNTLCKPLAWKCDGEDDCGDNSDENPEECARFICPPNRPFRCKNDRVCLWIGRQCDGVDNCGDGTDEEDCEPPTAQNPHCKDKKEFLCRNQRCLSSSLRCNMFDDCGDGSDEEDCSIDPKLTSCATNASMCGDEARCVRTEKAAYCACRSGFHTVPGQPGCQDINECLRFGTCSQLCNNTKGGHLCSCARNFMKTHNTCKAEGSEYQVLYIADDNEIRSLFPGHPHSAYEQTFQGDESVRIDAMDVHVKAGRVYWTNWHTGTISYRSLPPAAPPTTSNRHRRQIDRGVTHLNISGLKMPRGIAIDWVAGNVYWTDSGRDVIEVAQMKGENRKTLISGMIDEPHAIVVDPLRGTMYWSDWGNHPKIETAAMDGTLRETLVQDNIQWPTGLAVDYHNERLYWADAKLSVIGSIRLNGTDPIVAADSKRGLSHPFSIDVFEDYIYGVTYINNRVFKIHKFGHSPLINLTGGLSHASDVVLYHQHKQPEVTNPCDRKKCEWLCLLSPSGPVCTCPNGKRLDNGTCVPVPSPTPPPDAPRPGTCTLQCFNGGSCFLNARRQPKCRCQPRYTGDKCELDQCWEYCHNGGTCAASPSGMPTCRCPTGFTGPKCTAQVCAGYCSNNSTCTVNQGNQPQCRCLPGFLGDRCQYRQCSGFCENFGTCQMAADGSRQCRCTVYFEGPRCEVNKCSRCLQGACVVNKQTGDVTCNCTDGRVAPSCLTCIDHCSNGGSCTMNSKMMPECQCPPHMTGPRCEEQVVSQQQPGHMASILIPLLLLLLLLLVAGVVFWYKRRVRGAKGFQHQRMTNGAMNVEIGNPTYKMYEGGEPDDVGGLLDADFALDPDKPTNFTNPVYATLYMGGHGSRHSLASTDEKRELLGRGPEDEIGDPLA

apolipoprotein E = biological target: B1
heavy chain of clathrin = biological target: T2, heavy chain of clathrin (mouse (endogenous in bEnd3), UniProt Q68FD5 1-1675)
T2 construct: clathrin heavy chain, endogenous in mouse brain endothelial cells (bEnd3); source: endogenous, bEnd3 mouse brain endothelial cells (fixed, permeabilized)

dynamin-2 = biological target: T3, dynamin-2 (mouse (endogenous in bEnd3), UniProt P39054 1-870)
T3 construct: dynamin-2, endogenous in mouse brain endothelial cells (bEnd3); source: endogenous, bEnd3 mouse brain endothelial cells (fixed, permeabilized)
T3 sequence (looked up): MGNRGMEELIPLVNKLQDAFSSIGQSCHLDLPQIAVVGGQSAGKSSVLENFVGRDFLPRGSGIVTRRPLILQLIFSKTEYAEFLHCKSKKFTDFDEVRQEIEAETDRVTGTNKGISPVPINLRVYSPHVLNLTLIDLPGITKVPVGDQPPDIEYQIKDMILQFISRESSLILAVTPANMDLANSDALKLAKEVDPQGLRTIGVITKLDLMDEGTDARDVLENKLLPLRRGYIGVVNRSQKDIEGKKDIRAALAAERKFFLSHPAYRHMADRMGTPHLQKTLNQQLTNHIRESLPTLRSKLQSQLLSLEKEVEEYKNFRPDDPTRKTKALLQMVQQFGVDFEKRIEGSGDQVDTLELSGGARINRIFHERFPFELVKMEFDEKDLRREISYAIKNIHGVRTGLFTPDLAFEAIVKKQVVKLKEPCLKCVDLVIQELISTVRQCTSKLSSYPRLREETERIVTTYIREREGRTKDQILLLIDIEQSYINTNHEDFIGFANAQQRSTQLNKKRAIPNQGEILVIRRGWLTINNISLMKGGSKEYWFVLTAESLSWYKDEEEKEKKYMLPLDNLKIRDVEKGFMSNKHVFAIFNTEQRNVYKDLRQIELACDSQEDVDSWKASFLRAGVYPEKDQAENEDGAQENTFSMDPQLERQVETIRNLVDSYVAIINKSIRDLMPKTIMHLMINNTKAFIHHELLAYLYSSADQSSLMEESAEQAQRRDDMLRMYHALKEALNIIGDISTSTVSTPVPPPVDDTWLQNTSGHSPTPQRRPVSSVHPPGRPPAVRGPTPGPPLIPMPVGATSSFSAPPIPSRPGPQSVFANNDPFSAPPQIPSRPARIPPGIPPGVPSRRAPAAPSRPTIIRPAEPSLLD

β-actin = β-actin (mouse (endogenous in bEnd3), UniProt P60710 1-375)
EEA-1 = biological target: T4, EEA-1 (mouse (endogenous in bEnd3), UniProt Q8BL66 1-1411)
T4 construct: EEA-1 (early endosome marker), endogenous in mouse brain endothelial cells (bEnd3); also called early endosomes (EEA-1); source: endogenous, bEnd3 mouse brain endothelial cells (fixed, permeabilized)
T4 sequence (looked up): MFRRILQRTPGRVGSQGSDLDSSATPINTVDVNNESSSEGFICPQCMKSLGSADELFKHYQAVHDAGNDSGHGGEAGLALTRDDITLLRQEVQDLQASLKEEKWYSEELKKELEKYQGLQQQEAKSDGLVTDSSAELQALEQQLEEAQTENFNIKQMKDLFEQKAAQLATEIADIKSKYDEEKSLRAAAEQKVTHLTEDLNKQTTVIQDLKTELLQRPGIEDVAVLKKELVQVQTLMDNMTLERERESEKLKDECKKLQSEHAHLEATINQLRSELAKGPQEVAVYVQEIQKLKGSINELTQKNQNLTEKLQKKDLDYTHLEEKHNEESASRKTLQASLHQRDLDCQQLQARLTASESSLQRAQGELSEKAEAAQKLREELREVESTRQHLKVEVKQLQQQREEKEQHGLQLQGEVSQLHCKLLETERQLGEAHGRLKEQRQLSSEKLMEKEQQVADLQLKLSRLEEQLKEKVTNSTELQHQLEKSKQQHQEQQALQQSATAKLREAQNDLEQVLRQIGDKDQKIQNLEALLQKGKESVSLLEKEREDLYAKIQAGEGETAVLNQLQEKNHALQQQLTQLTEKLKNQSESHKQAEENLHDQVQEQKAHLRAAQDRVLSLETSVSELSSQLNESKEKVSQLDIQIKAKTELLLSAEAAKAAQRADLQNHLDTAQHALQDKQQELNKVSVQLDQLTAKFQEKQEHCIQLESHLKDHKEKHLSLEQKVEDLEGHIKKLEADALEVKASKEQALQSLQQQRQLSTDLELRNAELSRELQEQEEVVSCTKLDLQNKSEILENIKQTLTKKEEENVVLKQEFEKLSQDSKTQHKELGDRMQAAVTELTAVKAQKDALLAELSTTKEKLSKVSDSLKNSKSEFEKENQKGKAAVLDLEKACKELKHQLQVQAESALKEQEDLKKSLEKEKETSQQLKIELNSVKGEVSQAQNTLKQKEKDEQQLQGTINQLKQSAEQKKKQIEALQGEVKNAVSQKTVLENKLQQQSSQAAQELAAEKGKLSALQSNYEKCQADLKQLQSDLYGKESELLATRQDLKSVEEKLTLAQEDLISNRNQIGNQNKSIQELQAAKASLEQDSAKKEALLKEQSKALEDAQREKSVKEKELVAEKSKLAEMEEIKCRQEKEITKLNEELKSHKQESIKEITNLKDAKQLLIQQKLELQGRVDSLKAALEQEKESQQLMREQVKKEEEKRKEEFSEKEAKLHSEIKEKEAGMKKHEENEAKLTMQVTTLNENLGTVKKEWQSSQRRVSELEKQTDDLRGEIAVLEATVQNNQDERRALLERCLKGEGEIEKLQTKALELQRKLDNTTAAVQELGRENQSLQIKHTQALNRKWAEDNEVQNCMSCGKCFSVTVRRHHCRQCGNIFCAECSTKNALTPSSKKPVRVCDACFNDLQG

B1
PLA dots per cell [1]: ~80 dots per cell

B2: syndapin-2 (natural protein, mouse (endogenous in bEnd3), UniProt Q9WVE8 1-486, looked up)
chain: MSVTYDDSVGVEVSSDSFWEVGNYKRTVKRIDDGHRLCGDLMNCLHERARIEKAYAQQLTEWARRWRQLVEKGPQYGTVEKAWIAVMSEAERVSELHLEVKASLMNEDFEKIKNWQKEAFHKQMMGGFKETKEAEDGFRKAQKPWAKKLKEVEAAKKAHHTACKEEKLAISREANSKADPSLNPEQLKKLQDKIEKCKQDVLKTKDKYEKSLKELDQTTPQYMENMEQVFEQCQQFEEKRLRFFREVLLEVQKHLDLSNVASYKTIYRELEQSIKAADAVEDLRWFRANHGPGMAMNWPQFEEWSADLNRTLSRREKKKAVDGVTLTGINQTGDQSGQNKPGSNLSVPSNPAQSTQLQSSYNPFEDEDDTGSSISEKEDIKAKNVSSYEKTQTYPTDWSDDESNNPFSSTDANGDSNPFDEDTTSGTEVRVRALYDYEGQEHDELSFKAGDELTKIEDEDEQGWCKGRLDSGQVGLYPANYVEAIQ
notes: syndapin-2 (PACSIN-2), F-BAR protein, endogenous in mouse brain endothelial cells (bEnd3); also called PACSIN-2; Syn-2; source: endogenous, bEnd3 mouse brain endothelial cells (fixed, permeabilized)
PLA dots per cell [1]: ~250 dots per cell | PLA dots per cell (apolipoprotein E): ~250 dots per cell | PLA dots per cell (heavy chain of clathrin): ~150 dots per cell | PLA dots per cell (dynamin-2): ~150 dots per cell | PLA dots per cell (β-actin): ~150 dots per cell | PLA dots per cell (EEA-1): < 20 dots per cell
